Experimental findings from patent publication US20130129714A1 (UAB RESEARCH FOUNDATION, published 2013) are described below.

Test [1] deals with T1, human Tamm-Horsfall protein (human, UniProt P07911 25-587). Kind of test: competitive ELISA; light chains bound in the wells, Tamm-Horsfall protein in solution, linear peptide as inhibitor. From the text:
(§1) Peptides known to react with the Tamm-Horsfall protein in the yeast two-hybrid assay were synthesized, cyclized, and used as inhibitors in a competitive ELISA experiment. The peptides were cyclized by adding cysteine residues to the amino and carboxyl-terminal portions of the peptides and generating an intramolecular disulfide bridge (FIG. 4). Cyclization facilitates formation of the loop structure in solution. Both the linear and cyclized peptides inhibited the binding of the Tamm-Horsfall protein to the immunoglobulin light chains bound in the wells of the microtiter plate, but the efficiency of inhibition was increased by cyclization of the peptide inhibitor.
(In an ELISA, binding on a coated surface is turned into a signal by an enzyme label.)

The target of test [2] is T1, human Tamm-Horsfall protein. Kind of test: competitive ELISA; light chains bound in the wells, Tamm-Horsfall protein in solution, cyclized peptide as inhibitor.
Text: as §1

For test [3] the target is unchanged. Kind of test: competitive ELISA (FIG. 7). An excerpt: Mutation of the CDR3 sequence to disrupt the loop structure by substituting amino acid residues with phenyalanine confirmed that the secondary structure was an important determinant of binding (FIG. 6). The inhibitory capability of cyclized experimental ([…] (SEQ ID NO:32)) and control ([…] (SEQ ID NO:33)) peptides were then compared in a competitive ELISA assay. The experimental peptide served as a very efficient inhibitor of the binding interactions between the human Tamm-Horsfall protein and six different human immunoglobulin light chains (FIG. 7).

The target is the same in test [4]. Kind of test: competition studies for binding to Tamm-Horsfall protein.

Bridges are numbered along the chain shown (N, C = ends). Where no end group is shown, it is not given here.

A word on the IC50: it is the concentration needed to halve the response being measured.

Take LSADSSGSYLYVF (also called uncyclized peptide 2) [peptide 2 (LSADSSGSYLYVF (SEQ ID NO:2)), linear]: in test [1], the IC50 was determined as 90.9 nM.

B1: peptide 2 (LSADSSGSYLYVF (SEQ ID NO:2)), cyclized (peptide)
peptide: CLSADSSGSYLYVFC
modifications: disulfide 1-15
notes: Built from the words 'cyclized by adding cysteine residues to the amino and carboxyl-terminal portions of the peptides'; also called cyclized peptide 2
As for B1, the IC50 in test [2] turned out to be 24 nM.

In turn, QSYDNTLSGSYVF (also called uncyclized peptide 1) [peptide 1 (QSYDNTLSGSYVF (SEQ ID NO:1)), linear] returned an IC50 in test [1] of 55 nM.

B2: cyclized peptide (CLSADSSGSYLYVC) (SEQ ID NO:32) (peptide)
peptide: CLSADSSGSYLYVC
modifications: disulfide 1-14
notes: also called cyclized experimental peptide; experimental peptide
With B2, in test [3], the binding result is “binds”.

Take MQGTHWPPLT (also called SSH23 CDR3 peptide) [synthetic peptide (MQGTHWPPLT (SEQ ID NO:3)) identical to the CDR3 region of SSH23]: in test [4], the binding result is “binds”.
